Assay [1] addresses T1, - (UniProt Q15116 25-167). As to the kind of experiment: SPR (Biacore T200).
The target of assay [2] is T1, -. The experiment in a line: SPR (Biacore T200); range printed. (In general: Surface plasmon resonance follows binding to a sensor surface in real time, without labels.)

Substitutions are numbered along the chain they refer to.

T1 sequence (Q15116 25-167): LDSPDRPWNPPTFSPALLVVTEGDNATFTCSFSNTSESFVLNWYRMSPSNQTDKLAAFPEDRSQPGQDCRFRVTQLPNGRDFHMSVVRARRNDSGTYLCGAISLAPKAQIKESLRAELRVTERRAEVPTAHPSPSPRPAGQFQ

B1: Variant 7 (scFv, V domains shown)
VH: EVKLLESGGGLVQPGGSLRLSCAASGFTFSSYTMSWVRQAPGKGLEWVSYISHGGGDTYYPDSVKGRFTISRDNSKNTLYLQMNSLRAEDTAVYYCARHSGYERGYYYVMDYWGKGTTVTVSS
VL: DIVMTQSPDSLAVSLGERATINCKSSESVDYYGFSFLNWFQQKPGQPPKLLIYAASNRESGVPDRFSGSGSGTDFTLTISSLQAEDVAVYYCQQSKEVPWTFGQGTKLEIK
By Kd is commonly meant the free concentration of one partner at which half of the binding sites on the other are occupied at equilibrium, for simple one-to-one binding. A lower Kd goes with tighter binding. Take B1: binding with - [1] was characterised by a dissociation constant (Kd) of 0.67 nM.

B2: Variant 5 (scFv, V domains shown)
VH: B1 VH with K3Q, L5V, K115Q, T118L
VL: DIVMTQSPDSLAVSLGERATINCKASESVDYYGFSFLNWFQQKPGQPPKLLIYAASNRESGVPDRFSGSGSGTDFTLTISSLQAEDVAVYYCQQSKEVPWTFGQGTKLEIKR
The molecule B2 returned a dissociation constant Kd with - [1] of 2.3 nM.

B3: Variant 6 (scFv, V domains shown)
VH: B1 VH with K3Q, L5V, K115Q, T118L
VL: B2 VL with V3Q, M4L, A12S, E59Q, Y91F
In the case of B3, in the assay with - [1], the dissociation constant (Kd) was determined as 5.8 nM.

B4: Variant 2 (scFv, V domains shown)
VH: B1 VH with K3Q, L5V, P61A, K115Q, T118L
VL: B2 VL
Consider B4, for which, in the assay with - [2], binding was characterised by a dissociation constant (Kd) of 2 nM.

B5: Variant 3 (scFv, V domains shown)
VH: B1 VH with K3Q, L5V, P61A, K115Q, T118L
VL: B2 VL with V3Q, M4L, A12S, E59Q, Y91F
Molecule B5 had a dissociation constant (Kd) in the assay with - [1] of 5.6 nM.

B6: Variant 1 (scFv, V domains shown)
VH: B1 VH with K3Q, L5V, P61A, K115Q, T118L
VL: B2 VL with A25S
Turning to B6, in the assay with - [1], the equilibrium dissociation constant (Kd) worked out at 5.8 nM.

B7: Variant 4 (scFv, V domains shown)
VH: B1 VH with K3Q, L5V, K115Q, T118L
VL: B2 VL with A25S
The molecule B7 displayed a dissociation constant (Kd) with - [1] of 3.6 nM. Against the preceding molecule, the Kd is about 1.6-fold lower.

B8: Variant 8 (scFv, V domains shown)
VH: B1 VH
VL: B1 VL with S25A
For the molecule B8, binding with - [1] was characterised by a dissociation constant (Kd) of 2.6 nM.
